Measurements published in publication PMC3865438.

Target: cytochrome b6f complex from Chlamydomonas reinhardtii (Chlamydomonas reinhardtii) (UniProt Q00471)
Experiment: crystal structure

“cytochrome b6f complex from Chlamydomonas reinhardtii (from UniProt Q00471 1-215; P49728 30-206; P23230 1-160; P23577 32-317)” was tested, and the stoichiometry N was 2.
